Results on 22 sequences are retold here after the DeepSol protein solubility set.

The series can be described thus: soluble on expression in E. coli; label from the status in PepcDB or PDB records.
For the sequence “MAKNTLSFVCQNCGAAYNRWQGKCESCGEWNTLAEEDTSGSVPVSIRSKRKGRTFALESLAGKSPDAPRLSSGMTELDRVTGGGFVRGSVLLVGGDPGIGKSTLLTQATSLMARAGHRIVYISGEEAIAQVRLRAERLGLSDAPVQLAAETSVEDIVSTLSEGAVPRLIVIDSIQTMWTDTVESAPGTVTQVRASAQALIRFAKKTGAAIILVGHVTKDGQIAGPRVVEHMVDAVMSFEGEGSQQFRILRAVKNRFGPTDEIGVFEMTGLGLREVTNPSELFLSERDLGTPGTAVFAGIEGTRPVLVELQALVAPTSLGTPRRAVVGWDPSRLSMVLAVLEAHCGVKLSGHDVYLNVAGGLRIHEPAADLAAAAALVSSLVNAQLPTDAVYFGEISLSGVVRPVAQTPARLKEAAKLGFQRAVLPESARGEAGGDAGLSLNAVNSLTTLVAEIAARGSRRGESGGSAEKNATPARFRRGEGLEHHHHHH”, the “soluble on expression in E. coli” value is given as “not soluble”. For “SITDILSAEDIAAALQECQDPDTFEPQKFFQTSGLSKMSASQVKDIFRFIDNDQSGYLDGDELKYFLQKFQSDARELTESETKSLMDAADNDGDGKIGADEFQEMVHS”, the “soluble on expression in E. coli” value is reported as “soluble”. Turning to “MGSDKIHHHHHHMSYQDGKYQTEAEGLHGPVKVATTITGGKISAVEVLVGAGEYQSKANDVIASEIIAAQSTDVDAVSGATVSSNAIMTAVKKALQEASGESQDKTSEELTTDLAIVAAGPAGLAAAVSAAEQGVKILVFEKEKITGGTANMGMGPLGINSKIQRANFNEITVAEALKNQMEYTHYRVNGRLVARLLQIVCLNYRLVGRHGSQVRRGFPLLQGIQRHLAHR”, the “soluble on expression in E. coli” value is listed as “not soluble”. As for “MHLDVLDLHNFYYRTPLGRVAQRAVRDQVQKLWPDAQGQTVAGFGFSVPLLRPYLEQARRLIALMPGPQGVMPWPVGMGNVSVLCEEGAWPLSTGMVDKLVMLHGLETSEHPSEVLSEAWRVLGPGGRALFIVPSRSGLWARRDGTPFGFGRPYSLNQLEAQLKRHDFTPERALAALFAPPLHQRFWLKTADFWETGGRRFAPWLVGGVLIVEASKQVYAPTRTGLKAAVSKPLRVLEGIPQPLPAPAGRTSDGSCGCPGGC”, the “soluble on expression in E. coli” value is on record as “not soluble”. With “AIAGTAFPTMAEVVAEVAEMPTQMSPGAVEMSTPMSAEMMEMSTEVTEMTPGEALASSLFFQHHQFMCSECGSLYNTLEEVLSHQEQHMLAVSEEEALTTQNVGLEPELVPGAEGPFQCGECSQLILSPGELLAHQDAHLRESANQIQYQCWDCQELFPSPELWVAHRKAQHLSATVAEPPVPPPLPPPTPLPPPSPPSEVKMEPYECPECSTLCATPEEFLEHQGTHFDSLEKEERNGLEEEEEDDEEDEEDDEEMEDEEAMAEVGDDAVGGDESTAGWAQGCGDCPQHQPSAGARRQHRRTAHSPASATHPFHCSQCQRSFSSANRLQAHGRAHVGGTHECTTCSKVFKKAASLEQHLRLHRGEARYLCVDCGRGFGTELTLVAHRRAHTANPLHRCRCGKTFSNMTKFLYHRRTHAGKSGAPPTGATAPPAPAEPTPPPPPPAPPAQLPCPQCSKSFASASRLSRHRRAVHGPPERRHRCGVCGKGFKKLIHVRNHLRTHTGERPFQCHSCGKTFASLANLSRHQLTHTGARPYQCLDCGKRFTQSSNLQQHRRLHLRPVAFARAPRLPITGLYNKSPYYCGTCGRWFRAMAGLRLHQRVHARARTLTLQPPRSPSPAPPPPPEPQQTIMCTELGETIAIIETSQPLALEDTLQLCQAALGASEAGGLLQLDTAFV”, the “soluble on expression in E. coli” value is on record as “soluble”. In the case of “MAAATTTASAFKWPWQYDFPPFFTIQKSLNTKDKQLEAWARLVIDYAQHNKIYSLDIAEATTSELFNNQKLNRRLSTDGVNTVLQYLEQKKLIEFTDNGRTRFHIFWRRPDVWANMIYQWAVENAFINTPLTLYEITHGDDTTNESFHNLEREILMKALTCLEEQRRAQLMNIGGDNEGVKFI” it was “soluble”; in that of “SAQDVDECSLGANPCEHAGKCINTLGSFECQCLQGYTGPRCEIDVNECVSNPCQNDATCLDQIGEFQCICMPGYEGVHCEVNTDECASSPCLHNGRCLDKINEFQCECPTGFTGHLCQVDLHHILDAQKMVWNHR”, “soluble”. In the case of “MAHHHHHHMIPHICVNAANYSHTQFEECLTHMCDLSEELSAFKRTAVSLKRQATGDAETSKLALQYMEEALEKVLHVTQGVKEGNKTIGTAAAVKKSVIEAKIASDIADEEASKVERKLDKATRDAGNAEKNLQRILIYTARKACSSEGISSQDEEVKEAQCNVSTEIVYSCTRRPLKIKSDTLRKTYERLKSFTRTPNKTINEHLPKCHMWTELLEPAVASLTDMEKSASVARAYRNQVIKARGEAQQAAWTVGVTVQDVDGLDEVSEEDDFALAPVVLVAVLIVGAVLIDQHP” it was “not soluble”; in that of “MSLAKVLYITAHPFNELVSNSMAAGKAFIETYQQQHPDDEVKHIDLFETYIPVIDKDVLTGWGKMSNGETLTDDEQMKVSRLSDILEEFLSADKYVFVTPMWNLSFPPVVKAYIDAISIAGKTFKYSAEGPQGLLTDKKVLHIQSRGGYYTEGPAADFEMGDRYLRTIMTFLGVPSYETIIIEGHNAEPHKTEEIKATSINNAEKLATTFEGGSHHHHHH”, “soluble”; in that of “AEIKNVILMIGDGMGPQQVGLLETYANQAPNSIYKGNKTAIYQLAQEGVIGSSLTHPEDAIVVDSACSATMLATGIYSSSEVIGIDSQGNHVETVLEKAKKAGKATGLVSDTRLTHATPASFAAHQPHRSLENQIASDMLATGADVMLSGGLRHWIPKSTNDKGETYKQLEKLTQGDVYLKSKRKDDRNLLTEAEKDGYQLAFNRNMLDDAKGDKLLGLFAYSGMDDGIAYSNKKKSGERTQPSLKEMTQKALNILSKDEDGFFLMVEGGQIDWAGHSNDAGTMLHELLKFDEAIQTVYEWAKDREDTIVIVTADHETGSFGFSYSSNDLPKPQKRSGEAFADRDYAPNFNFGAFDILDGLYNQKQSYYGMISEFQKLDKSLQTPEKLAEIVNKNSEFPITAEQAKNVLASKPNPYRLAQHKYLSAEEVPAINDFDAFFPYNDRGNLLAREQATGQNIVWGTGTHTHTPVNVFAWGPAEKILPVSKIMHHSELGEYIKQQVN”, “soluble”. In the case of “MSLNLTTTVLSLQLEQPFVSNKGSTTTVHQVVIKLTWQEYGGFGTVLCPKETQLSVEQIQQLIQACEPLLSTATPWQFELYQGQLASVVRNQAAMMAGIDMAWHDLLGKVVAQPIHALWGLAGLSIPPTALSLGAQSEQALVAQAAKLAAWPILKLKLTTDSNLDSLRQLREVYAGRIWVDGNGAWDVDQAIAAAQQCHTYGVELIEQPIPAGNLDQLRTIRQHSPIPIVADEDCRGLADVLRLHTCVDVINLKLFKCGGLRQARTMIDVAKQFGLKVMLGCKTESSLGISAIAQLAGLADYLDLDGHLDLVNDPFQGLVIEQGTLRLPQTPGLGLTIQGAIEEGHHHHHH” it was “not soluble”; in that of “GGNANMFMNLSREAQSETRRHHYLSSSQKEAKDFAMFADTSNPTLVRTIGVRNNLSLITDPRTGGTALMTDQSIPRKFVLGSKSSAPGENAKVFRDEMRAAGHNVSTKQAGELLREVQSDSDDDNFPDPDDFIMSRFTG”, “not soluble”.

As for “MAHHHHHHMSINRYNYKTMNSLLKDKIPQHFDILPHTTIKCIIHPSVIFTILDAYLRRDEDQTHVIGTLMGSVIDTNLVEISDCFVDKHSLNEGGFLQIIKDHHETMYELKQKIRPRDQVVGWFCSGSELSELSCAVHGWFKEHNSISKFYPHTPLNEPIHLLVDASLESGFLNIKAYVQLPISLVKDYFVHFHEIQTELLPCNVERADVSLVKGNIHAHKDNHTNNLEHNHNNNQIDMNELSLKKLLIMLKQCKSYVQDVIDQKKKGNISVGRYLHKVLSNDTFLTLEKFDSINESVLQDNLMISYLSNLANLQFLIAEKLNSSSLQ”, the “soluble on expression in E. coli” value was “not soluble”.

Consider “PPRKKVATGRRDITKKSEGKPHPTQTYEHELLATQLSNKKMMPFKSQIRARSFDEYKDWVCHDGEEFLLILSGEVMFYSEFYEPVVLSEGDSVYYDANMGHMLTSVSEEDAQILWVTAK”, for which the “soluble on expression in E. coli” value is on record as “not soluble”. In the case of “EITPLIFQKQTTEPVENLRTYTALEMEGRDIYIREGCNVCHSQMIRPFRAETERYGHYSVAGESVWEHPFLWGSKRTGPDLARVGQRYSDEWHRVHLINPRDVVPESNMPGFPWLEENVLDGELTSKKIAIFRDNFGVPYTEEDVKNASEEVKGKTEMDALIAYLQSLGH” it was “not soluble”. With “SSSPPEGKLETKAGHPPAVKAGGMRIVQKHPHTGDGKEERDKDDQEWESTSPPKPTVFISGVIARGDKDFPPAAAQVAHQKPHASMDKHVSPRTQHIQQPRK”, the “soluble on expression in E. coli” value is given as “soluble”.

“MGSDKIHHHHHHMSNSQILGERARILADQLLAVPTTVYQQRSLQAALHLFLDTGTKTALHRAPLVSKSAVSRLLNNYDWDTAACWALLQRSQWEALLLAARRKRRACLRLSVDLTSIEKTGKQLPFVRVYNEVHGIHLVVLFAEYRGLKFPVGYRVYRGKGTATPVSLALELLGEVPDAIRKRFRIRVLADSGFEAAVFLDGVRTLGFEFVVGVRATRRTTHPGQVTVADCEHGAWLELQNWPHDTLTLARVERGERTFFSVASELMTGDEVAAEGGKRWNIESFFKEGKHQFSLQQFALRTARGLDRWVLLVFLAFTLTMLHRSPDLSLEEAAGLALTLALPFLRLNVIFARLATDEEFLRQHGYSLKIARCNS”: the “soluble on expression in E. coli” value was “not soluble”. In the case of “MFYILNNVLKNIKTLDNVKSKFFLKDSFLKNKLKANNLDDNLSSHIFFNEIFVSLRDDEKKEEHKKVLLFNKVRNDKKHRKRAFQKRGYWKKMHYFIRKNNMMSYAFKVQNIDYEKIKKLKRGEVYSN” it was “not soluble”; in that of “MGSDKIHHHHHHMVSEQVRERAKAGPIPKADYQALFDALEAERSPRDPEWVQAWIILHCATRQRAFACQRLLSRYNRQCVKRGTMGEYSEFLRHVQDDLGFYLPNGNAYTENFRGVDVGEIMAQCGELAARFAELELEVFANSGTLLGIVREGTLLEHDNDIDLGVLLTARTFEGAAQEWIALTDKLIADGVGVSRSTWSKVTLKLQKIGAFGVDLFPAWIDADDKVYVYPHTFGALRRDQLLPYDLHGPTGLHLPADAEAMLECNYGEGWRVPNVGWGFDWKTANAQFEAFLTAVEAAAAPD”, “not soluble”. In the case of “MECPKEIVLLMHSYFDGDLQPEGEQQLKEHLRSCAACAAHFHELKKTVAFLQYAAHVAAPPSFAAKVMEAMPKERKTARLRRFMHRHPLLTAASLFLALTLGSLASSWGERGAFSVSADEHVIIRDHTVIVPKGETVKGDIVVRNGSIRIEGTVDGDVTVIHGKKYMASAGQVTGEVEEINQVFEWIWYNIKERFNRALQSIE” it was “not soluble”; in that of “MSLSEDKMDLYLQQGMYGPLETKPDERHLFLGSLRERVVLALTKGQVLRSKPYKEAEHELKNSHNVTLLINGELQYQSYSSYIQMASRYGVPFKIVSDLQFHTPLGIVIAADIAVNRELIYIQDDIYNRSVLKSEGHHHHHH”, “soluble”. For the sequence “MGSDKIHHHHHHMKDLVYLNYAATSYKKFPATIEALTAYLAENQFMNYGRNAPLLREGLPLLETRQLLADFFQAPSAAQITFTNNATTSLNLALAGILQPGDHVITTMLEHHAVARPLHLLEKERGISVTYVACQKTGLLEVEDIQRAWRTNTKALVMTHASNVLGTILPIEECFQWAQQKGLLTILDAAQTAGFLPIKMTQMAIDVLAFTGHKSLYGLAGIGGLAFSERGAEAVKPLMAGGTGSHSNSFDQPSFLPDKFEAGTLNSLGILSLNSSIKELNKIGLAAIQKHERTLMQNFLNGLSGLPVTILGTKDVAQTVPVVSITLWNQEETIVAQQLAEQYGIMTRAGLHCAPLAHQTAGTLATGTLRFSFGWQTTPEEITWTIHALQELLI”, the “soluble on expression in E. coli” value is listed as “not soluble”.
